Assays:
Type in all cases: biochemical
[1] = Michaelis constant (Km) of laccase for ABTS, Hanes-Wolf plot; settings: substrate ABTS
[2] = Substrate specificity of laccase (relative rate of product formation)
Method: The laccase activity was measured based on a modified method of Ters et al. (2009). The laccase activity was defined as the amount of the enzyme required to oxidise 1 μmol of ABTS per minute at 25° C., and pH 4.7. The assay mixture contained: 0.1 M citrate-phosphate buffer (255 μL, pH 4.7), ABTS (5 μL, 4 mM (ABTS stock solution)), and pre-diluted laccase (5 μL) that ensured the linear range of Michaelis-Menten kinetics. The oxidation of ABTS was monitored at 420 nm (ε420=36800 M^−1cm^−1) for 2 min. in an Infinite 200 microtiter plate reader (Tecan, Salzburg, Austria). Laccase activity assays on the substrates: hydroquinone (248 nm), 2.6-dimethoxyphenol (470 nm), and guaiacol (436 nm) was done similarly with the substrate concentration as described in Table 2 using the following extinction coefficient values: 17.542 M^−1cm^−1, 35.645 M^−1cm^−1, and 6.400 M^−1cm^−1, respectively (Minussi et al. 2007). The data collection was monitored by the program Tecan i-control version 1.5.14.0 (Tecan, Salzburg, Austria). The calculated laccase activity was corrected by the absorbance of a control sample which contained: 0.1 M citrate-phosphate buffer (255 μL, pH 4.7), ABTS (5 μL, 4 mM), and 5 μL of distilled water instead of the enzyme. All determinations of the laccase activity were performed in duplicates, with an average sample standard deviation less than 5%.
LacGL1 laccase was able to oxidize both ABTS and other phenolic compounds (Table 5) such as: hydroquinone, guaiacol, and 2.6-dimethoxyphenol, however in a slower rate than for ABTS.

[3] = Glucose release in LacGL1-cellulase (Cellic CTec1, CTec2) catalyzed hydrolysis of STEX SCB
Method: FIG. 11. A graphical comparison of yields of released glucose over time in LacGL1-Cellic® CTec1 catalyzed hydrolysis STEX-SCB at different pH and temperatures. The cellulase preparation is Cellic® CTec1 (CC1) and laccase was Ganoderma lucidum LacGL1 expressed in Pichia pastoris X-33. CC1 and LacGL1 were added in E/S ratio of 0.064%, and 0.4% (w/w), respectively.
FIG. 12. A graphical comparison of the yields of released glucose over time in LacGL1-Cellic® CTec2 catalyzed hydrolysis of STEX-SCB at different pH and temperatures. The cellulase preparation is Cellic® CTec2 (CC2) and laccase was Ganoderma lucidum LacGL1 expressed in Pichia pastoris X-33. […] and LacGL1 were added in E/S ratio of 0.064%, and 0.4% (w/w), respectively.
5% (w/v) dry matter of pretreated SCB (STEX SCB) was evaluated in 0.1 M citrate-phosphate buffer at pH 4.7 and 40° C. (optimal for the LacGL1 laccase) or pH 5.1 and 50° C. (optimal for the cellulase preparations), respectively. The commercially available cellulase cocktail preparations: Cellic® CTec1 and Cellic® CTec2 (0.064% Enzyme/Substrate ratio (E/S), w/w; Novozymes, Bagsværd, Denmark) were used with the combination of the LacGL1 laccase (0.4% E/S, w/w). The hydrolysis reactions were collected after 0, 1, 3, 5, 16, and 24 hours and stopped by incubation at 99° C. for 15 min. The samples were then centrifuged at 10.000 rpm for 2 min., the supernatants were filtered through 0.2 μm filter and the yields of released glucose were quantified using the D-glucose-HK kit (Megazyme, Denmark). The glucose yields released over time were corrected for the glucose content of the hydrolysis sample at time 0. The E/S dosage was based on the total protein concentration used. The protein quantification was performed using the Pierce BCA (BiCinchoninic Acid) protein assay kit microplate procedure according to manufacturer's instructions (Thermo Fisher Scientific, Rockford, US) using Bovine serum albumin (BSA) was used as a standard, as described before (Silva et al. 2011). The Cellic® CTec1 (CC1) and Cellic® CTec2 (CC2), cellulase preparations, are based on the Trichoderma reesei cellulase complex (exo-glucanase, endo-glucanase, and β-glucosidase activities) with additional β-glucosidase and glycoside hydrolase family 61 hydrolyse boosting proteins (Harris 2010). All determinations of the enzymatic hydrolysis samples were performed in duplicates.
Release of glucose during cellulose hydrolysis of STEX SCB is enhanced by the addition of LacGL1 laccase in a dosage dependent manner (data not shown). The combined laccase plus cellulase treatment of STEX SCB were performed at two different conditions: Firstly, at […], 40° C. which is optimal for the LacGL1 laccase (as previously shown from MODDE pH-temp.-activity model, FIG. 8 and thermal stability plots, FIGS. 9, 10), which are slightly less optimal for cellulases; and secondly at 50° C. and pH 5.1, which are the golden standard conditions for optimal performance of CC1 and CC2. From the MODDE data, […]: the type of the cellulase preparation, the addition of LacGL1, the temperature, and the pH of the reaction (FIG. 11, 12). Overall, the highest rate of STEX SCB hydrolysis, considering all of the aforementioned factors, was obtained for the combination of LacGL1-Cellic® CTec2 at pH 5.1 and 50° C. […] The higher pH and temperature enhanced LacGL1-CC2 catalyzed hydrolysis by 12% (FIG. 12).

Laccase relative rate of product formation ([2]; substrate 2.6-Dimethoxyphenol 1 mM): 61% | Laccase relative rate of product formation ([2]; substrate ABTS 1 mM): 100% | Laccase relative rate of product formation ([2]; substrate Guaiacol 1 mM): 66% | Laccase relative rate of product formation ([2]; substrate Hydroquinone 1 mM): 80% | total glucose yield higher than CC2 alone ([3]; LacGL1-Cellic CTec2 at pH 5.1, 50° C. vs CC2 alone at pH 4.6, 40° C.): 27.5% | total glucose yield higher than CC2 alone ([3]; LacGL1-Cellic CTec2 at pH 5.1, 50° C. vs CC2 alone under the same conditions): 19% | enhancement of LacGL1-CC2 catalyzed hydrolysis by higher pH and temperature ([3]; pH 5.1, 50° C. vs pH 4.6, 40° C.): 12%
B1: LacGL1: Fungal laccase from Ganoderma lucidum CBS229.93 (SEQ ID NO: 5/9), recombinantly expressed in Pichia pastoris X-33 (protein, listed as Ganoderma lucidum)
chain: GIGPKTDLTISNADVAPDGYTRAAVVVNGVFPAPLITGNKGDRFQLNVIDQMTNHTMLKSTSIHWHGFFQKGTNWADGPAFINQCPISSGHSFLYDFQVPDQAGTFWYHSHLSTQYCDGLRGPFVVYDPKDPLKKLYDIDDDSTVITLTDWYHVAARLGPRFPLGSDSTLINGLGRSTTNVTADLAVINVTQGKRYRFRLVSLSCDPNYTFSIDDHNMTVIEADGIETQPVTVNAIQIFSAQRYSFVLTANQTIDNYWIRANPNFGNVGFTDGINSAILRYAGADPVEPTTSQQTTQNLLNEVDLHPFVPKRTPGQPTQGGVDTAINMVFNFNGSNFFINNASFVPPTVPVLLQILSGAQAAQDLLPSGSVYTLPVNKSIELTFPATANAPGAPHPFHLHGHAFAVVRSAGSTVYNYDNPVWRDVVSTGTPAAGDNVTIRFQTDNPGPWFLHCHIDFHLEAGFAVVFAEDPTDTSLANPVPKAWSDLCPTYDALSVDDQ
modifications: mat_peptide (1)..(499) Mature LacGL1 laccase (minus signal peptide)
Km ([1]; laccase expressed in Ganoderma lucidum CBS229.93 (native)): 107 µM | Km ([1]; recombinantly expressed in Pichia pastoris): 122 µM | improvement in glucose yields over CC1 at pH 5.1 and 50° C. ([3]; LacGL1-CC1 at pH 4.6, 40° C.): 66% | improvement in glucose yields over LacGL1-CC1 at pH 5.1 and 50° C. ([3]; LacGL1-CC1 at pH 4.6, 40° C.): 48% | enhancement of CC1 mediated-hydrolysis ([3]; pH 4.6, 40° C.): 30%

— patent publication US9725702B2, “Laccase from ganoderma lucidum capable of enhancing enzymatic degradation of lignocellulolytic biomass” (DANMARKS TEKNISKE UNIVERSITET, priority 2012, dated 2017)
